According to US20170253660A1:

Target: T1, B7-H3 on LAN-1 cells (human) (UniProt Q5ZPR3)
T1 sequence (looked up): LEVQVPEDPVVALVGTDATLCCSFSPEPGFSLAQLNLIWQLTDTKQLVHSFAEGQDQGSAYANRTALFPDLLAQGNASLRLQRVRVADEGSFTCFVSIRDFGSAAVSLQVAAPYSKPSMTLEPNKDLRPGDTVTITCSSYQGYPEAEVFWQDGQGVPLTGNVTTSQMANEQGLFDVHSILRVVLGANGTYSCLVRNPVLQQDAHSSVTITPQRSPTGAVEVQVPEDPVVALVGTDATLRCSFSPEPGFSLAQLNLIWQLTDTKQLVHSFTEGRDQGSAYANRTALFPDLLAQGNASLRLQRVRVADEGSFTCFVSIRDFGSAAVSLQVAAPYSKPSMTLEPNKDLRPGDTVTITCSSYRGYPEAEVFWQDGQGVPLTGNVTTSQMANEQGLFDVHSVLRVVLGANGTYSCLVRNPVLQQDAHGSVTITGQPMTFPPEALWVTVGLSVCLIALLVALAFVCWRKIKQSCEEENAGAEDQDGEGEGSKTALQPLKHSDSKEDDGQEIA
Test: flow cytometry wash-off on LAN-1 cells, FITC-labeled goat anti-mouse second antibody

retention on cells after 10 washes (MFI as percent of the baseline after first wash): 80%
B1: 8H9 (antibody, INN chains, looked up, mouse IgG1, V domains shown)
VH: QVQLQQSGAELVKPGASVKLSCKASGYTFTNYDINWVRQRPEQGLEWIGWIFPGDGSTQYNEKFKGKATLTTDTSSSTAYMQLSRLTSEDSAVYFCARQTTATWFAYWGQGTLVTVSA
VL: DIVMTQSPATLSVTPGDRVSLSCRASQSISDYLHWYQQKSHESPRLLIKYASQSISGIPSRFSGSGSGSDFTLSINSVEPEDVGVYYCQNGHSFPLTFGAGTKLELK
